{"source": "patent US20040077045A1", "about": "(LUDWIG INSTITUTE FOR CANCER RESEARCH, published 2004)", "key": {"HLA-DRB4, purified [1]": {"target": "HLA-DRB4, purified (human)", "assay": "competition on purified HLA-DR (DRB4); labelled peptide not named; fluorescence assay"}, "[2]": {"target": "T1, HLA-DRB5 (DRB5*0101), purified (human)", "T1 construct": "mature", "assay": "competition on purified HLA-DR (DRB5*0101) against biotinylated HA 306-318 (5 nM, pH 5.5); fluorescence assay"}, "[3]": {"target": "T2, HLA-DR7 (DRB1*0701), purified (human)", "T2 construct": "mature", "assay": "competition on purified HLA-DR (DRB1*0701) against biotinylated YKL (10 nM, pH 5); fluorescence assay"}, "[4]": {"target": "T1, HLA-DRB5 (DRB5*0101), purified", "assay": "competition on purified HLA-DR (DRB5*0101); ratio to reference peptide HA 306-318"}, "[5]": {"target": "T2, HLA-DR7 (DRB1*0701), purified", "assay": "competition on purified HLA-DR (DRB1*0701); ratio to reference peptide YKL"}, "[6]": {"target": "T3, HLA-DR1 (DRB1*0101), purified (human)", "T3 construct": "mature", "assay": "competition on purified HLA-DR (DRB1*0101) against biotinylated HA 306-318 (1 nM, pH 6); fluorescence assay"}, "[7]": {"target": "T4, HLA-DR4 (DRB1*0401), purified (human)", "T4 construct": "mature", "assay": "competition on purified HLA-DR (DRB1*0401) against biotinylated HA 306-318 (30 nM, pH 6); fluorescence assay"}, "[8]": {"target": "T5, HLA-DR15 (DRB1*1501), purified (human)", "T5 construct": "mature", "assay": "competition on purified HLA-DR (DRB1*1501) against biotinylated A3 152-166 (10 nM, pH 4.5); fluorescence assay"}, "HLA-DRB4, purified [9]": {"target": "HLA-DRB4, purified (human)", "assay": "competition on purified HLA-DR (DRB4); ratio to a reference peptide that is not named"}, "[10]": {"target": "T4, HLA-DR4 (DRB1*0401), purified", "assay": "competition on purified HLA-DR (DRB1*0401); ratio to reference peptide HA 306-318"}, "[11]": {"target": "T6, HLA-DR11 (DRB1*1101), purified (human)", "T6 construct": "mature", "assay": "competition on purified HLA-DR (DRB1*1101) against biotinylated HA 306-318 (20 nM, pH 5); fluorescence assay"}, "[12]": {"target": "T7, HLA-DR13 (DRB1*1301), purified (human)", "T7 construct": "mature", "assay": "competition on purified HLA-DR (DRB1*1301) against biotinylated B1 21-36 (200 nM, pH 4.5); fluorescence assay"}, "[13]": {"target": "T8, HLA-DR3 (DRB1*0301), purified (human)", "T8 construct": "mature", "assay": "competition on purified HLA-DR (DRB1*0301) against biotinylated MT 2-16 (100 nM, pH 4.5); fluorescence assay"}, "[14]": {"target": "T3, HLA-DR1 (DRB1*0101), purified", "assay": "competition on purified HLA-DR (DRB1*0101); ratio to reference peptide HA 306-318"}, "[15]": {"target": "T5, HLA-DR15 (DRB1*1501), purified", "assay": "competition on purified HLA-DR (DRB1*1501); ratio to reference peptide A3 152-166"}, "[16]": {"target": "T6, HLA-DR11 (DRB1*1101), purified", "assay": "competition on purified HLA-DR (DRB1*1101); ratio to reference peptide HA 306-318"}, "[17]": {"target": "T9, HLA-DRB3 (DRB3*0101), purified (human)", "T9 construct": "mature", "assay": "competition on purified HLA-DR (DRB3*0101) against biotinylated LOL 191-210 (5 nM, pH 5.5); fluorescence assay"}}, "data": [{"binder": "ACYEFLWGPRALVETS", "note": "[peptide MAGE-3 267-282 (ACYEFLWGPRALVETS)]", "values": [{"measurement": "IC50", "setting": "HLA-DRB4, purified [1]", "value": 2800, "unit": "nM"}, {"measurement": "IC50", "setting": "[2]", "value": 170, "unit": "nM"}, {"measurement": "IC50", "setting": "[3]", "value": 1200, "unit": "nM"}, {"measurement": "Ratios IC50 MAGE-3/IC50 reference", "setting": "[4]", "value": 11}, {"measurement": "Ratios IC50 MAGE-3/IC50 reference", "setting": "[5]", "value": 120}, {"measurement": "IC50", "setting": "[6]", "value": 0.4, "unit": "nM"}, {"measurement": "IC50", "setting": "[7]", "value": 730, "unit": "nM"}, {"measurement": "IC50", "setting": "[8]", "value": 220, "unit": "nM"}, {"measurement": "Ratios IC50 MAGE-3/IC50 reference", "setting": "HLA-DRB4, purified [9]", "value": 70}, {"measurement": "Ratios IC50 MAGE-3/IC50 reference", "setting": "[10]", "value": 18}, {"measurement": "IC50", "setting": "[11]", "value": 150, "unit": "nM"}, {"measurement": "IC50", "setting": "[12]", "value": "> 10000", "unit": "nM"}, {"measurement": "IC50", "setting": "[13]", "value": "> 10000", "unit": "nM"}, {"measurement": "Ratios IC50 MAGE-3/IC50 reference", "setting": "[14]", "value": 0.2}, {"measurement": "Ratios IC50 MAGE-3/IC50 reference", "setting": "[15]", "value": 15}, {"measurement": "Ratios IC50 MAGE-3/IC50 reference", "setting": "[16]", "value": 6}, {"measurement": "IC50", "setting": "[17]", "value": "> 10000", "unit": "nM"}]}]}
